Tests used:
[1] = molecular target: T1, purified, catalytically inactive CNA/B containing CNA_(Trunc+H151Q) (UniProt Q08209 1-391; P63098 1-170, H151Q); test: fluorescence polarisation
Target sequence in this assay (Q08209 1-391 H151Q, chain 1 of 2): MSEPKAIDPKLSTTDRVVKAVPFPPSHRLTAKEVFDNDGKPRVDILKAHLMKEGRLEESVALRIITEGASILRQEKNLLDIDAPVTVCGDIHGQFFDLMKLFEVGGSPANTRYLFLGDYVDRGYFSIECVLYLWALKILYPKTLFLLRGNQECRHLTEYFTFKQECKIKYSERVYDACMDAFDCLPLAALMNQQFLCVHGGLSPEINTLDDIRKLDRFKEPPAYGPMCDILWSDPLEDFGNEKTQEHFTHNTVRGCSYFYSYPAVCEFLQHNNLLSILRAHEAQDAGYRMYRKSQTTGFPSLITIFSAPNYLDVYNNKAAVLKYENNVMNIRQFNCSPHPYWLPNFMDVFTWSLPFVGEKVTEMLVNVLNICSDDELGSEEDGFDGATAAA
Target sequence in this assay (P63098 whole entry, chain 2 of 2): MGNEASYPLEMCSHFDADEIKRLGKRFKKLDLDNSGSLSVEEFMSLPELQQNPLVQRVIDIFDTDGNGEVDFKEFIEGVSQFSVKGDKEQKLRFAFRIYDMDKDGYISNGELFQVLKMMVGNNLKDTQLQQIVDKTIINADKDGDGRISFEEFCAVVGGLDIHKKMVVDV

[2] = molecular target: T1, purified, catalytically inactive CNA/B …; test: NMR titration

Binder | binding result [1] | binding result [2]
SHDEAPVLNDKHLDVPDIIITPPTPTGMML [CLMBWT peptide (residues 21-50), not phosphorylated, unlabeled] | binds | –
SHDEAPVLNDKHADAPDIIITPPTPTGMML (phosphothreonine at 44) [pCLMB_(LxVMut) peptide (residues 21-50, pThr44), unlabeled] | binds | –
full-length CLMB (76 residues) expressed in E. coli (natural protein, uniformly ^15N-labeled in the NMR titrations; not phosphorylated) MGLKMSCLKGFQMCVSSSSSSHDEAPVLNDKHLDVPDIIITPPTPTGMMLPRDLGSTVWLDETGSCPDDGEIDPEA | – | binds
